Assay results published in patent US20230104769A1 (MABWELL SHANGHAI BIOSCIENCE, published 2023).

Assays:
[1] = molecular target: T1, human PD-1-hFc (NCBI accession No.: NP_005009.2, 21aa-167aa, Lot: 20180329) (human, UniProt Q15116 21-167); test: competition ELISA, plate-bound PD-1-hFc, competitor PD-L2-hFc-Biotin 2 µg/mL; competitor PD-L2
T1 construct: range 21-167; not shown: human Fc (hFc)
Experimental: Afterwards, HRP-streptavidin (Cat: 52438, Sigma) which was diluted at a dilution of 1:2000 was added to the plate for reacting for 30 min. Later, TMB substrate was added to develop color for 15 min, which was followed by the addition of 2 M HCl to terminate the reaction and then the plate was detected by a microplate reader. With 630 nm as reference wavelength, the absorbance at 450 nm (A450 nm-630 nm) of each well in the plate was read and recorded.

[2] = molecular target: T2, recombinant human PD-1 protein (NCBI accession No.: NP_005009.2, 21aa-167aa) (human, UniProt Q15116 21-167); test: ELISA, plate coated with the protein at 1 µg/mL, biotinylated h317, HRP-streptavidin
T2 construct: range 21-167; also called recombinant human PD-1 extracellular domain protein; PD-1-ECD
Experimental: (§1) The plates were washed three times with PBS subsequently, and 5% BSA-PBS was added for blocking for 60 min at 37° C. […] Again, the plates were washed four times with PBST, then HRP-streptavidin (Cat: 019-035-098, Jackson Immuno Research) with a dilution of 1:100 was added for a 30 min incubation at 37° C. Once again, the plates were washed four times with PBST, and TMB substrate was added for developing color through incubating for 10 min at 37° C., then the reaction was terminated by adding 2 M HCl. With 630 nm as reference wavelength, the absorbance at a wavelength of 450 nm (A450 nm-630 nm) of each well in the plates was read and recorded.

[3] = molecular target: CTLA4 (Cat: 11159-H08H, Sino Biological Inc.) (human, UniProt P16410 36-162); test: as above
Experimental: as §1

[4] = molecular target: CD28 (Cat: 11524-HCCH, Sino Biological Inc.) (human, UniProt P10747 19-152); test: as above
Experimental: as §1

[5] = molecular target: T3, N116A; test: flow cytometry on transfected HEK293 cells, antibody 2 µg/ml, goat anti-human IgG(Fc)-Cy5; no negative-control bar is drawn
T3 construct: also called full-length human PD-1 N116A expressed on HEK293 cells; PD-1-mut N116A; not shown: EGFP of the expression vector, if it is fused to PD-1
Experimental: (§2) The mutants obtained were inserted into an expression vector carrying EGFP to construct five plasmids expressing full-length human PD-1 (WT, N49A, N58A., N116A, N74A). […] 2 days after the transfection, the cells were collected to a 96-well plate, centrifuged at 1500 rpm for 2 minutes, and the supernatants in the wells were discarded. […] The working concentration of the primary antibodies was 2 μg/ml, and cells without primary antibodies added were used as negative controls. The mixtures obtained were centrifuged at 1500 rpm for 2 minutes, and supernatants were discarded. The cells in each well were resuspended by adding 200 μl PBS and the suspensions obtained were then centrifuged at 1500 rpm for 2 minutes, then supernatants were discarded. Later, the obtained cells were incubated with 200 μl goat anti-human IgG(Fc)-Cy5 (Cat: 12136, Lot: 017M4800V, Sigma) diluted with 5% BSA added into each well for 1 h at room temperature, then centrifuged at 1500 rpm for 2 minutes, and supernatants were discarded. The cells were resuspended by adding 200 μl PBS and the suspensions obtained were then centrifuged at 1500 rpm for 2 minutes, then supernatants were discarded. The cells again were resuspended by adding 200 μl PBS thereto and detected by flow cytometry (B49007AD, SNAW31211).

[6] = molecular target: T4, N74A; test: as above
T4 construct: also called full-length human PD-1 N74A expressed on HEK293 cells; PD-1-mut N74A; not shown: EGFP of the expression vector, if it is fused to PD-1
Experimental: as §2

[7] = molecular target: T5, N49A; test: as above
T5 construct: also called full-length human PD-1 N49A expressed on HEK293 cells; PD-1-mut N49A; not shown: EGFP of the expression vector, if it is fused to PD-1
Experimental: as §2

[8] = molecular target: T6, full-length human PD-1 N58A expressed on HEK293 cells (human, UniProt Q15116 25-288); test: flow cytometry on transfected HEK293 cells
T6 construct: whole, on cells; Expression vector carries EGFP; the mutation removes the N-glycosylation site; also called PD-1-mut N58A
Experimental: as §2

[9] = molecular target: T2, recombinant human PD-1 protein (NCBI …); test: ELISA, biotinylated h317 on plate-bound PD-1
Experimental: as §1, with “immuno” for “Immuno”

[10] = molecular target: T7, cynomolgus monkey PD-1 (Cat: 90311-C08H, Sino Biological Inc.) (cynomolgus monkey, UniProt B0LAJ3 25-170); test: ELISA, biotinylated h317 on plate-bound PD-1
T7 construct: Bought recombinant protein; not shown: The vendor's tag
Experimental: as §1, with “immuno” for “Immuno”

T2 sequence (Q15116 21-167 limits assumed, form in doubt): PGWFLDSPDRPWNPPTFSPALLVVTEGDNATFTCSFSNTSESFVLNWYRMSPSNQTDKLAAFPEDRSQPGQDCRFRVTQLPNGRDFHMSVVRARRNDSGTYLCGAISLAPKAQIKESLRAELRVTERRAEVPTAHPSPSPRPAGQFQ
T4 sequence (chain, as listed by the source N74A N74A limits assumed): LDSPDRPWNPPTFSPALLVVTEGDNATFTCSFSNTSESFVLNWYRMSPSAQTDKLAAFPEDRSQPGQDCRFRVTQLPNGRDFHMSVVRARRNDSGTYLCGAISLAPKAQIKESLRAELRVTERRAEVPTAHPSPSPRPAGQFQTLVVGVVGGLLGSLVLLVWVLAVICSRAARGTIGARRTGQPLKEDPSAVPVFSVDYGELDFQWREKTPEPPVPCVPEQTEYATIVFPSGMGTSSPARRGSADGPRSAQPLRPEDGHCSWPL
T1 sequence (Q15116 21-167 limits assumed, form in doubt): as the sequence (Q15116 21-167 limits assumed, form in doubt) above
CTLA4 (Cat: 11159-H08H, Sino Biological Inc.), sequence (P16410 36-162 limits assumed): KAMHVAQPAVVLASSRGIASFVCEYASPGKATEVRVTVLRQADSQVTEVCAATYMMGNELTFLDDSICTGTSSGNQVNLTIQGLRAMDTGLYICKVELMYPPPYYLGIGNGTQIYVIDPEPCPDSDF
T7 sequence (B0LAJ3 entry or part of it C08H C08H limits assumed): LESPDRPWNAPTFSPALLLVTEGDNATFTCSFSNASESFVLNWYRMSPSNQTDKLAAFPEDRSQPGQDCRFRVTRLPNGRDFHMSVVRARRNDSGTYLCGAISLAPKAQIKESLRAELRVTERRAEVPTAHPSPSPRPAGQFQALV
T6 sequence (Q15116 25-288 N58A): as the sequence (chain, as listed by the source N74A N74A limits assumed) above, with N34A, A50N counted along it
T3 sequence (chain, as listed by the source N116A N116A limits assumed): as the sequence (chain, as listed by the source N74A N74A limits assumed) above, with A50N, N92A counted along it
T5 sequence (chain, as listed by the source N49A N49A limits assumed): as the sequence (chain, as listed by the source N74A N74A limits assumed) above, with N25A, A50N counted along it

B1: h317 (humanized anti-human PD-1 antibody) (antibody, V domains shown)
VH: EVQLVESGGGLVKPGGSLRLSCAASGFTFSSYDMSWVRQAPGKGLEWVATISGGGSYTYYPDSVKGRFTISRDNAKNSLYLQMNSLRAEDTAVYYCASPDSSGVAYWGQGTLVTVSS
VL: DIVMTQSPLSLPVTPGEPASITCKASQDVETVVAWYLQKPGQSPRLLIYWASTRHTGVPDRFSGSGSGTDFTLKISRVEAEDVGVYYCQQYSRYPWTFGQGTKL
notes: also called h317-biotin; biotinylated h317
B1 was tested, and the IC50 [1] was 1.2 nM, the “EC50 (read off the curve)” value [2] was about 0.001 nM and the binding result [3] was “no binding (tested: 1 nM (log(nM) 0 on the axis))”. B1: no binding (tested: 1 nM (log(nM) 0 on the axis)) [4]; binds [5]; binds [6]. For the same binder, the binding result [7] was “binds”, the binding result [8] was “no binding (tested: 2 µg/ml)” and the EC50 [9] was 0.0047 nM. For the same binder, the EC50 [10] was 0.0182 nM.
